Test results reported in patent US20140314668A1, “TECHNETIUM-99M LABELED COMPLEX OF GOLD NANOPARTICLE-GOLD BINDING PEPTIDES, AND METHOD OF MAKING AND USING THE SAME” (Korea Atomic Energy Research Institute, priority 2013, published 2014).

Assay: NaCl-induced aggregation method (adsorption of GBP1 on the surface of GNPs, UV-Vis)
Type: physicochemical
Description: In order to investigate a minimum concentration of GBP1 required for complete adsorption on the surface of gold nanoparticles (GNPs), since it is known that salts such as NaCl induce aggregation of gold and other nanoparitices (H.M.L. M. Y. Lin et al, Nature, 339, 1989, 360-362), an NaCl-induced aggregation method was used, and concentration of GBP1 adsorbed on the surface of GNPs was analyzed.
A variety of concentrations of GBP1 were added to 0.5 mL of GNP solution (O.D.=1.0, D=10 nm) to form a mixture, followed by standing for 10 minutes at room temperature. Next, 10% NaCl solution was added to the mixture so as to have a final concentration of 0.5% in order to induce aggregation of GNPs, followed by standing for 10 minutes at room temperature. Subsequently, in order to protect additional aggregation, 0.1% BSA was added to the resultant, followed by standing for 10 minutes at room temperature. Finally, aggregation degree of GNPs was measured in a wavelength range of 220 to 700 nm by UV-Vis spectrophotometer, and the measurement results are shown in FIG. 1.

Q: Which “GBP1 concentration at which aggregation of GNPs is prevented” value (0.5 mL GNP solution (O.D.=1.0, D=10 nm), 0.5% NaCl final, room temperature) does the source give for “GBP1: synthetic gold binding peptide 1, amino acid sequence (SEQ ID No. 1): MHGKTQATSGTIQS (GBP1)” here?
A: more than 10 μg/ml

Q: What about the “main surface plasmon band of the GNP solution (red-shifted)” value (GBP1 concentration of 10 μg/ml or less, in the presence of NaCl) of the same substance?
A: 525 nm
